Experimental data from the DeepSol protein solubility set.

Experiment: soluble on expression in E. coli; label from the status in PepcDB or PDB records

Row | Sequence | soluble on expression in E. coli
1 | MGSDKIHHHHHHMHTDINALFAALWQDYIQMTPSAAKVHALLGHGKPIINDHIALRTFNIAKVNLDVLAKHFTSLGYVACGDYKFEQKKLVAKHFEHPDSTQPKVFISELLVEEFSPALQATIQGLIAQVDVAATTADNFIYSGRHWSLDSQTYEDLLAESEYAAWVAAFGYRANHFTVSINHLDGFDTLESVNNALKQAGFVLNSSGGEIKGSPEVLLEQSSTMADKIGVEFTNATVEIPSCFYEFALRYPMANGELYTGFVAASADKIFESTNVNKA | not soluble
2 | MGSDKIHHHHHHMTGNQMFCRENELDESFKQLASYINIPVGVLLPFKSQCFVRHYNKGQIVYYSSDETTHIYLLLKGNIMRENFNLNGDVYRYLNREKVLFPLNNLFQDKVPNEMCTALTDCEMIGIPRDLIEYLCKNHEEIFVKLFSLLSETQCQHIEYNMALTSKLAKERVTKILRYLCQTVGYDHDEFYEIKHFMTIQLLSDMAGISRETTSHIINELREEKILFKNSKNWLVSKDL | not soluble
3 | MIEFSHVSKLFGAQKAVNDLNLNFQEGSFSVLIGTSGSGKSTTLKMINRLVEHDSGEIRFAGEEIRSLPVLELRRRMGYAIQSIGLFPHWSVAQNIATVPQLQKWSRARIDDRIDELMALLGLESNLRERYPHQLSGGQQQRVGVARALAADPQVLLMDEPFGALDPVTRGALQQEMTRIHRLLGRTIVLVTHDIDEALRLAEHLVLMDHGEVVQQGNPLTMLTRPANDFVRQFFGRSELGVRLLSLRSVADYVRREERADGEALAEEMTLRDALSLFVARGCEVLPVVNMQGQPCGTLHFQDLLVEA | soluble
4 | MIEIESRELADIPVLHAYPVGQKDTPLPCVIFYHGFTSSSLVYSYFAVALAQAGLRVIMPDAPDHGSRFSGDEARRLNQFWQILLQSMQEFTTLRAAIAEENWLLDDRLAVGGASMGAMTALGITARHPTVKCTASMMGSGYFTSLARSLFPPLIPETAAQQNEFNKIVAPLAEWEATNHLEQLGDRPLLLWHGLDDDVVPADESLRLQQALSETGRDKLLTCSWQPGVRHRITPEALDAAVTFFRQHL | not soluble
5 | SAQKEEAAVATEAASQNGEDLENLDDPEKLKELIELPPFEIVTGERLPANFFKFQFRNVEYSSGRNKTFLCYVVEAQGKGGQVQASRGYLEDEHAAAHAEEAFFNTILPAFDPALRYNVTWYVSSSPCAACADRIIKTLSKTKNLRLLILVGRLFMWEEPEIQAALKKLKEAGCKLRIMKPQDFEYVWQNFVEQEEGESKAFQPWEDIQENFLYYEEKLADILK | soluble
6 | IQQANEEAVTRIIQSKPILVGFDKAINVMPDMTETTILHAGPPITYENMCGPMKGAVQGALVFEGLAKDLADADRVARSGAITFSPCHEHDAVGSMAGVTSPNMYVHIIKNETYGNTAFTNLSEQLAKVLRFGANDQSVVDRLIWMRDVLGPLLHDAMTFCPEGIDLRLMLSQALHMGDECHNRNVAGSTLLVQALTPYMVQTDFSREQLKEVFEFLGSSDYFSGPTWMGAAKCALDAGHNVENSTIVTTMCRNGVEFGIRVSGIGGNHWFTGPAQRVIGPMFAGYTQEDAGLDMGDSAITETYGVGGFAMAAAPAIVPLVGGTVAEALNYSKEMLEITTKENPNVTIPVLDFMGIPTGIDVLKVLETGMLPVINTAIAHKEPGIGMIGAGLTNPPANVFNEALKALVATIN | not soluble
7 | MKHHHHHHPMSGLVPRGSAMGEPLASASKFSSIVSNDIDMNFRSFKFWVHNDNLMEVKTRILRHLPVLVYANVPSENDDLVNRFESDISNNDEIVGSSSSTSSVEHGLGARSFDPLINTLYFDNEHFELYNDKLLKLNSAPTLRLRWTGQLSDKPDIFLEKKTLIEDEATGKSEFDLTKLQLKQKFINGFIFEGDKKFKEQTLKKLKESGTAGRDLERLEEDFSEIQNFIIKNELQPVFRTVYTRTAFQIPGDDKIRVTIDSNIVFIKEDSFDRERPIRDPNTWHRTDIDANVANPLKFLRGGEYAKFPYSVMEIKVKSSLDSSMSASSMISNVKLPKKHGQWLNDLTNSHLVKEIPKFSIFVQGVASLYGDDEKLDILPFWLPDLETDIRQ | soluble
8 | MDYDQQPIMYDEVELLIQAVDQQPHPLLRLRDKAIIQLGLQGGFRRSELANLKVHYLSFMRDKLKVRLPFSKSNQQGLREWKSLPDSEPFAAYHAVKSWLNESQITDGHLFRSISRDGKTLRPYHVNDNSKPKSTFSRNSGFLNGDDIYRIIKQYCLKAGLPAQYYGAHSLRSGCVTQLHENNKDILYIMARTGHTDPRSLRHYLKPKEDLEHHHHHH | not soluble
9 | MEESDQTVLLPNVENEIGSFYHDMPDEKLLRHIKAIFDEASLRPSLTKNVPSTSSQVTEELNKVEIRDPKHEMQDEQYLSIFENPSGVQYNQADGSFSWNNRFHSDNSVQYINVLNNYGCEGADTLLNQSDSSDETDESIEERRTPRGNRQSRSNLTSKPSAKYWTKRGGDPIVNCSCSICGSKFSTIRCLLDHRHQEHSLKDMMMCGLCGKEFSKRTHIYLHLSQEYKVYHCDGCNTSFASKWHLEKHRCKENETIDDKKRRRTGRVNAEEIKVIKEEIQDEEFGGVVLSNENHEKSKEDRFQFACVLCGKKYQHYHWLLKHRTKCLETTDEIQEFKCNVCYRRYNSSFWFERHMEKCNSSTALPPALLDQTISCPNCHKKYQNEYWFDYHKKHCPDITPALSDVHLDVNSLRDRRPREGEISVVPDVNLFGIEPEREDDNDDDEDADATISSSSSSTGNLVNIPCSICGKFCVGVASLLHHRKQIHGLTAMLTCGVCTKKFNTLSSIRRHMSMEYSIFRCQQCGRNCIDRTTLDRHECFKPYKIRDKRLFNIQNISVLKCPDCRATFANLNVLSEHRKTCQYGNVFDNIQQPGSSSLRQHHRSDTNGAALQRKITSRVRLDSNTPEKWTCRDCHASFHNLQALCSHRHESHGKEMFQCNNCSETLPNYRALHDHNMMHCRNNRSTNETTTRRYSEEDINYDYMDNVQIFVVEESEIFIPIQPHFSRK | not soluble
10 | MGSDKIHHHHHHMTQSHDEPMQTMMWGGNAAFIEGLYESYLQDPSSVGAEWRSYFDGLRGGAQERVHSEVQQRFYELGQHRGPVTVQVTGGASGAQQAAGALVTAYRVYGHISARNNPLKLRGVPTVPELTPEFYGLSEADLSEQVQDSPFSGTLRDVIAQLQDTYCGAIGFEYNYLPANERAWFQERIEKGRGQGRYGLSQDERRRLMQKLNAAEGLELYLKNRYPGVKRFGLEGGESFIPLMDRIIQQAGGRYGVKEVVVGMAHRGRLNTLVNIFGKPSGTLFDEFDGKKKLSDDPDIAGDVKYHMGYSSDVRTPGGPMHLAMAFNPSHLEIVSPVVHGSVRARQDRRGDTERKQVLPITVHGDAAVSGQGVVMETLNFSRLRGFTTGGAIRIVINNQIGFTISDPRDSRSSRYCTDVAKIANAPVMHVNGDDPEAVAFCGDLALAYRQEFGKDVFIDLICFRRNGHNEGDEPRMTQPVMYREIDQHPGTRALYAAQLEKDGVLAAGEGDKLVNDFRDRLDRGETVVEEMENAEQSKLAVDWSGYTNTHWKDDEVATAVPREKLEALGLKLTQVPEGFRVHRTVERTVIKAREAMARGEQPLDWGMGEMLAYASLLDEGFGLRLDGQDSGRGTFVHRHAVLHNQDAVDPLSEEYMALAHLSPEQGRVEVIDSTLSEEAVLAFEYGYSTSEPKALVAWEAQFGDFANGAQAVVDQFLSAGESKWQRLSGLTMLLPHGYEGAGPEHSSARLERYLQLCAQKNMQVVVPSSAAQIFHLLRRQVLRPYRKPLIVMTPKSLLRNKHAMSPLSDLYDGVFHEVIGDAEVQNARRVVLSSGKLHWELTEAREKDKEGYAGTALVRLEQLYPFPAEQVKAELAKHPGAQVVWAQEEPENQGAWLMIWEDLEHCLQPGQTLTHASRPRSASTAVGYTSVHVREQAKVIADALGEPITRQDVDAQVPLTEEASAQG | not soluble
11 | MDNLNVFANEDNQVNDVKPPPPPPRVCARCDSDNTKFCYYNNYCEFQPRYFCKNCRRYWTHGGALRNIPIGGSSRAKRARVNQPSVARMVSVETQRGNNQPFSNVQENVHLVGSFGASSSSSVGAVGNLFGSLYDIHGGMVTNLHPTRTVRPNHRLAFHDGSFEQDYYDVGSDNLLVNQQVGGYGYHMNPVDQFKWNQSFNNTMNMNYNNDSTSGSSRGSDMNVNHDNKKIRYRNSVIMHPCHLEKDGP | not soluble
12 | TPTEGLTIGDKAPTFTICGEKQLIDLKDLRGKYVLLSFWASYDALSRMQNATLNHAVAQADNVEMVSVSFDEYKSIFNETIKKDQISTSNCFVELAGVSSDLYQTYRLKRGFKNFLLDENGVIVAKDVTVSELSS | not soluble
13 | MVVGGFGVGKTTMVRSVSEIRPLNTEETMTQAGEAVDDISEVRGKSATTVAFDFGRISLDARNVLYLFGAPGQERFWFLWDRLFSGTLGAVVLVDTRRIDDSWYAIDRLEHHGTPFIVACNDFGGPEHSPEAVREALDLDPRVPLVSCDARSRQSSKQVLITLVEHLQAHYAGPTARPRQEFALEHHHHHH | not soluble
14 | MMNIQVLKVSGNGNINAIADTINKYVIEDGIVHIDAIGIKATYTTVKALIQVVESLVNKGYRFNLRPYYVKVNTAGNDIQPISKTAIRWTLIAKEK | soluble
15 | MSLDLSVDRSSPVPLYFQLSQQLEAAIEHGALTPGSLLGNEIELAARLGLSRPTVRQAIQSLVDKGLLVRRRGVGTQVVHSKVRRPLELSSLYDDLEAAGQRPATKVLVNTVVPATAEIAAALGVAEDSEVHRIERLRLTHGEPMAYLCNYLPPGLVDLDTGQLEATGLYRLMRAAGITLHSARQSIGARAATSGEAERLGEDAGAPLLTMERTTFDDTGRAVEFGTHTYRPSRYSFEFQLLVRP | soluble
16 | MDYEIENNHADSIRRGSIEVICGSMFSGKTEELLRRLRRAKIARQTVEIFKPTIDIRYDETDVVSHDKNAIASTPVDNSANILLLSSQVDVVGIDEAQFFDEGLVEVAQQLADQGVRVVIAGLDMDFRRQPFGPMPGLCAIADSVTKVHAVCVECGRLASYSFRRVQGDQQVMLGELNEYSPLCRTCYRKCSSPPQTEEIHSTILEHHHHHH | soluble
17 | MRSYRAQGPLPGFYHYYPGVPAVVGVRVEERVNFCPAVWNTGLSADPPLFGVSISPKRFTHGLLLKARRFSASFHPFGQKDLVHWLGSHSGREVDKGQAPHFLGHTGVPILEGAYAAYELELLEVHTFGDHDLFVGRVVAVWEEEGLLDEKGRPKPGLALLYYGKGLYGRPAEETFAP | soluble
18 | MSHYLSPGAYLPHDAPMLLLEDVVSVSDDSAVCRVTVSPSGVLAPFLDPDGNLPGWFTLELMAQTVGVWSGWHRHQQGKNSIELGMILGARELLCTTGILPAGQTLTITVKLLMQDDRFGSFECSINDGEATGRINTFQPTAEELTTLFQQGAS | not soluble
19 | FTGFFIGPMAEVTIPLVGLGVDGALLFAQRGVKVGDESIRQNGLDIPINLKYTIGLGSALGIYVAAGPDFYFNFSGDKNYGELGRLNKKNAQVGINVGAGVKLLRHLQVGANYNIPLNKTAEWKEADFSYKTKMWQISAAYIF | not soluble
20 | MSSGRNISCRMATRSCFFRLLQGVEMLRIADKTFDSHLFTGTGKFASSQLMVEAIRASGSQLVTLAMKRVDLRQHNDAILEPLIAAGVTLLPNTSGAKTAEEAIFAAHLAREALGTNWLKLEIHPDARWLLPDPIETLKAAETLVQQGFVVLPYCGADPVLCKRLEEVGCAAVMPLGAPIGSNQGLETRAMLEIIIQQATVPVVVDAGIGVPSHAAQALEMGADAVLVNTAIAVADDPVNMAKAFRLAVEAGLLARQSGPGSRSYFAHATSPLTGFLEASA | soluble
21 | MADDAGILYENSLDLLKSMKNFAGNVGEGEKKHPYGKAANAARAYGSGMKNSAASFNHSGEQFDKLFEACNTFKDQINGNVLAKLISFKDVECKDVDTQMTQLKKAQKDYANKKSKIVPDQVQVDAAEATLKKLLEEAKATLEKFNKTGCELLTQISADMKTGFDAYCDAAASIN | not soluble
